Reference: publication PMC10580122, “Human IL-35 Inhibits the Bioactivity of IL-12 and Its Interaction with IL-12Rβ2” (ImmunoHorizons, 2023)

Target: T1, recombinant human IL-12Rβ1 (human, UniProt P42701 24-545)
T1 construct: human IL-12 receptor subunit beta-1, recombinant; also called rIL-12Rβ1; source: bought: Sino Biological (11674-H08H)
Experiment: ELISA; solid-phase binding assay; wells coated with rIL-12Rβ1, rIL-12Rβ2 or no IL-12R chain; IL-12 or IL-12p40 monomer alone or with IL-35, each cytokine fixed at 5 μg/ml; overnight at 4°C; detected with anti-IL-12 or anti-IL-12p40 and HRP
Details: both partners purified

B1: Human IL-12 (complex)
chain 1: RNLPVATPDPGMFPCLHHSQNLLRAVSNMLQKARQTLEFYPCTSEEIDHEDITKDKTSTVEACLPLELTKNESCLNSRETSFITNGSCLASRKTSFMMALCLSSIYEDLKMYQVEFKTMNAKLLMDPKRQIFLDQNMLAVIDELMQALNFNSETVPQKSSLEEPDFYKTKIKLCILLHAFRIRAVTIDRVMSYLNAS
chain 2: IWELKKDVYVVELDWYPDAPGEMVVLTCDTPEEDGITWTLDQSSEVLGSGKTLTIQVKEFGDAGQYTCHKGGEVLSHSLLLLHKKEDGIWSTDILKDQKEPKNKTFLRCEAKNYSGRFTCWWLTTISTDLTFSVKSSRGSSDPQGVTCGAATLSAERVRGDNKEYEYSVECQEDSACPAAEESLPIEVMVDAVHKLKYENYTSSFFIRDIIKPDPPKNLQLKPLKNSRQVEVSWEYPDTWSTPHSYFSLTFCVQVQGKSKREKKDRVFTDKTSATVICRKNASISVRAQDRYYSSSWSEWASVPCS
notes: p35 subunit of human IL-12 (IL-12p35); linked to p40 via a disulfide bond; p40 subunit of human IL-12 (IL-12p40); linked to p35 via a disulfide bond; Bought heterodimer of p35 and p40; also called exogenous human IL-12; source: bought: PeproTech (200-12H)
B1: binds.
